Key:
AR = AR transactivation reporter gene assay in H1299 cells with ARA67; assay type: cell-based, human
Method: (§1) H1299 and COS-1 cells were maintained in Dulbecco's modified Eagle's medium (DMEM) (Life Technologies, Inc.) supplemented with 10% heat inactivated fetal bovine serum (FBS). LNCap cells were maintained in RPMI 1640 supplemented with […]. All media contain 100 units penicillin, 100 μg/ml streptomycin and 2 mM L-glutamine. Cells were seeded to a density of 50-60% confluency for transfection. In transfections where H1299 and COS-1 cells were used, the calcium phosphate precipitation method was used as described (Pan H J, et al. 1999. Endocrine 11:321-327) unless otherwise noted. […] In other reporter gene assays, where ligand treatment was required, cell culture media were changed to DMEM containing 10% charcoal-dextran-stripped FBS (CD-FBS) 2 h before transfection. After 16-18 h transfection, cells were treated with medium containing either vehicle or ligands for another 20-24 h and then cells were harvested. With LNCap cells transfection, the cells were treated with fresh RPMI 1640 containing 10% CD-FBS before transfection with SuperFect performed according to the manufacturer's protocol (Qiagen). After transfection, cells were allowed to recover in fresh RPMI 1640 containing 10% CD-FBS for 8-12 h, and then treated with either vehicle or ligands for another 20-24 h before harvesting. Each experiment was repeated at least three times.

GR = biological target: T1, GR (Homo sapiens, UniProt P04150); assay: GR transactivation reporter gene assay in H1299 cells with ARA67; assay type: cell-based; details: 500 ng pSG5-ARA67, MMTV-Luc, cognate ligand
T1 construct: host or cells: H1299
T1 sequence (P04150 1-777): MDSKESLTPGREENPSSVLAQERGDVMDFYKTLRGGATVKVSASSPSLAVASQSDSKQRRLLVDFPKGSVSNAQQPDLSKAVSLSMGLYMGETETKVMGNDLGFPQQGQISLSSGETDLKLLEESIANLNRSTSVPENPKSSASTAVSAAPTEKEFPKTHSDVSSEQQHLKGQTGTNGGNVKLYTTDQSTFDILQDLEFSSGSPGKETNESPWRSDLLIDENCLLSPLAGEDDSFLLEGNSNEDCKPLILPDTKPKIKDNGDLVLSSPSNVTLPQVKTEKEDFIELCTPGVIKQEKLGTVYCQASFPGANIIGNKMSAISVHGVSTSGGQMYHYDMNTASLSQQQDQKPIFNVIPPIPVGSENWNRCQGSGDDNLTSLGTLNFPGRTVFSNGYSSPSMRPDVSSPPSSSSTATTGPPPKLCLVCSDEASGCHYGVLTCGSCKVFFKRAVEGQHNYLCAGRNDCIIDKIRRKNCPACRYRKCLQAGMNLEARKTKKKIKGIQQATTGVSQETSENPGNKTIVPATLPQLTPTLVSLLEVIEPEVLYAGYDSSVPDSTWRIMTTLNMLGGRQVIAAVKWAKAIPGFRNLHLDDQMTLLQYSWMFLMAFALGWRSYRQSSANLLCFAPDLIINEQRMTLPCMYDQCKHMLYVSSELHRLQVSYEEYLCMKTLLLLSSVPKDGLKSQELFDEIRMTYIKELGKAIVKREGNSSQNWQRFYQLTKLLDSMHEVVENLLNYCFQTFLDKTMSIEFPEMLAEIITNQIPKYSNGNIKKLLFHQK
Method: as §1

microtubules = details: in the presence of Mg-ATP; cited from earlier work

Sequence of AR (P10275 with tags, fused parts or gaps DEL79-80/DUP473-473): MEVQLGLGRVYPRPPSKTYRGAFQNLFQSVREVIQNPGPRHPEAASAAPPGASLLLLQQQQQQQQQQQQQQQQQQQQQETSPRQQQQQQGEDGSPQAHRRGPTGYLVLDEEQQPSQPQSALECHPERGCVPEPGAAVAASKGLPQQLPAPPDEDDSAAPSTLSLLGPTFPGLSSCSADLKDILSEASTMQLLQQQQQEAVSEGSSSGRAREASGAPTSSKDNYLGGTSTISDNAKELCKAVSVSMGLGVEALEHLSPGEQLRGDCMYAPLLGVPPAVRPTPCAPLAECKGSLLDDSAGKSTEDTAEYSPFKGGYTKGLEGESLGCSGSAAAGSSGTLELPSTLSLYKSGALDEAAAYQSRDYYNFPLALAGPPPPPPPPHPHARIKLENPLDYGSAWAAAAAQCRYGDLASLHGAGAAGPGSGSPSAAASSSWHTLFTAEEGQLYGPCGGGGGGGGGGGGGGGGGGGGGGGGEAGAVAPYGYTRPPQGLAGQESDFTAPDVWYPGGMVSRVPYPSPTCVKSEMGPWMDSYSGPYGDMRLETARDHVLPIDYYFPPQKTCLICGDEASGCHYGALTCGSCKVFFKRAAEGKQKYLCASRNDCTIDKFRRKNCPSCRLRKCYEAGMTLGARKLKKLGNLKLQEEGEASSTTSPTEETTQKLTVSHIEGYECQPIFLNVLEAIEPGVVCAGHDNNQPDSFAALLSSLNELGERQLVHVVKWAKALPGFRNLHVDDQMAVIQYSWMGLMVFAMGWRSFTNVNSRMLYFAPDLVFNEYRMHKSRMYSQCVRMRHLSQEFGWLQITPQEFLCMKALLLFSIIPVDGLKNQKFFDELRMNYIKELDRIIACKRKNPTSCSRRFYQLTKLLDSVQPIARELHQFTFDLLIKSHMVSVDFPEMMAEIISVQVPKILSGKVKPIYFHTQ

B1: ARA67: AR N-terminal interacting protein of 585 amino acids (SEQ ID NO:1), matches PAT1; functions as a repressor of AR (protein)
chain: MAAVELEWIPETLYNTAISAVVDNYIRSRRDIRSLPENIQFDVYYKLYQQGRLCQLGSEFCELEVFAKVLRALDKRHLLHHCFQALMDHGVKVASVLAYSFSRRCSYIAESDAAVKEKAIQVGFVLGGFLSDAGWYSDAEKVFLSCLQLCTLHDEMLHWFRAVECCVRLLHVRNGNCKYHLGEETFKLAQTYMDKLSKHGQQANKAALYGELCALLFAKSHYDEAYKWCIEAMKEITAGLPVKVVVDVLRQASKACVVKREFKKAEQLIKHAVYLARDHFGSKHPKYSDTLLDYGFYLLNVDNICQSVAIYQAALDIRQSVFGGKNIHVATAHEDLAYSSYVHQYSSGKFDNALFHAERAIGIITHILPEDHLLLASSKRVKALILEEIAIDCHNKETEQRLLQEAHDLHLSSLQLAKKAFGEFNVQTAKHYGNLGRLYQSMRKFKEAEEMHIKAIQIKEQLLGQEDYEVALSVGHLASLYNYDMNQYENAEKLYLRSIAIGKKLFGEGYSGLEYDYRGLIKLYNSIGNYEKVFEYHNVLSNWNRLRDRQYSVTDALEDVSTSPQSTEEVVQSFLISQNVEGPSC
AR
  repression of AR activity relative to PR activity: approximately 2.5 times
AR; H1299 cells, 500 ng pSG5-ARA67, MMTV-Luc, cognate ligand
  suppression on AR activity: 50%
AR; H1299 cells, MMTV-Luc and ARE4-Luc, 10 nM DHT
  DHT-induced AR transactivation: suppressed
AR; H1299 cells, PSA-Luc and ARE4-Luc, 10 nM DHT
  ARA70N enhanced AR transactivation: repressed dose-dependently
GR
  suppression on GR: 20%
microtubules
  enhancement of microtubule binding: 5-10 fold
